Reference: patent publication US11344542B2, “Treatment of aging-associated disease with modulators of leukotriene A4 hydrolase” (Alkahest, Inc., priority 2018, dated 2022)

Assays:
Format in all cases: in vivo, mouse
[1] = test system: granule cell layer of the dentate gyrus; experiment: Histology of labeled proliferating cells (EdU, Ki67, BrdU/DCX) in the dentate gyrus of young mice; conditions: for number of Ki67-labeled cells within the granule cell layer of the dentate gyrus: study week 6; for number of BrdU and DCX co-labeled cells within the granule cell layer of the dentate gyrus: BrdU in week 4
Description: (§1) Brains were collected following saline perfusion and separated by mid-sagittal slice with one-half drop fixed in freshly prepared 4% PFA. PFA was changed to 30% sucrose 24-48 hours later. A second change to 30% sucrose occurred 24 hours later. The second half was dissected into hippocampus and cortex and then snap frozen on dry ice.
(§2) Brain tissue was sectioned or lysed and analyzed for markers of neurogenesis and aging by standard histological and biochemical methods, including qRT-PCR, Western blot, ELISA, and immunohistochemistry.
(§3) Young, 8-week old wild-type (WT; C57BL/6) mice were homogenized between groups by body weight. Following group determination, mice were injected intraperitoneally (IP) with BrdU (5-bromo-2′-deoxyuridine) formulated in PBS (phosphate buffered saline) at a final concentration of 10 mg/mL dosed at 150 mg/kg for 5 days Immediately following the BrdU dosing, group 1 was injected intravenously (IV) with PBS control and group 2 with recombinant human LTA4H protein daily for 7 consecutive days. One week after the completion of LTA4H administration, in week 3, mice in both treatment groups were injected IP with EdU (5-ethynyl-2′-deoxyuridine) formulated in PBS at a final concentration of 10 mg/mL and dosed at 50 mg/kg for 5 days. Behavioral assays were executed in week 5 and 6, and animals were sacrificed, and tissues collected immediately after completion of behavior testing in week 6. FIG. 3 depicts the treatment paradigm and injection timing for the study.
(§4) The initial study in young, 8-week old wild-type (WT; C57BL/6) mice was repeated in a second cohort of mice with additional timepoints and readouts. Mice were homogenized between 3 treatment groups by body weight. Group 1 (Vehicle) was injected intravenously (IV) with PBS control 3 times per week for 6 weeks, group 2 (LTA4H Pulse) with recombinant human LTA4H protein daily for 7 consecutive days, and group 3 (LTA4H Continuous) with recombinant human LTA4H protein 3 times per week for 6 weeks. In week 4 after the initiation of dosing, mice in all treatment groups were injected IP with BrdU (5-bromo-2′-deoxyuridine) formulated in PBS (phosphate buffered saline) at a final concentration of 10 mg/mL dosed at 150 mg/kg for 5 days. Behavioral assays were executed in week 5 and 6, and animals were sacrificed, and tissues collected immediately after completion of behavior testing in week 6. FIG. 10 depicts the treatment paradigm and injection timing for the study.

[2] = test system: 8-week old (young) wild-type (C57BL/6) mice; experiment: Y-maze in young mice treated with recombinant human LTA4H protein
Description: A large Y-maze test assessed short-term memory of the familiarity of a specific context. Mice were brought to the experimental room for at least 30 min of acclimation to the experimental room conditions (dim lighting) prior to testing. For the initial training trial, the mouse was placed at the end of one arm of a large Y-maze designated “start arm” (arm length: 15 inches). The third arm of the maze was blocked off, allowing the mouse to explore two of the three arms freely (“start arm” and “familiar arm”) for 5 min. Each arm contained spatial cues. Three hours later, the mouse was placed back into the maze in the “start arm,” and allowed to explore all three arms with the third arm unblocked (“novel arm”). Movements in and out of each arm were tracked using automated tracking software (CleverSys or San Diego Instruments). Testing was performed under dim lighting, and the apparatus was cleaned with 70% ethanol between trials. The time spent and number of entireties into the “novel arm” and “familiar arm” were analyzed, as well as total distance travelled and velocity as measures of general locomotor activity.
as §4, with “study. […]” for “study.”

[3] = test system: 8-week old (young) wild-type (C57BL/6) mice; experiment: Open field test in young mice treated with recombinant human LTA4H protein
Description: The open field test was used to evaluate general locomotor activity and exploratory behavior in a novel environment. It consisted of a square arena (50 cm×50 cm). Mice were brought to the experimental room for at least 30 min of acclimation to the experimental room conditions (dim lighting) prior to testing. Mice were placed in the center of the arena and tracked using automated software (CleverSys or San Diego Instruments) for 15 min. Total distance traveled, average velocity, and time spent in the peripheral and center zones were analyzed.
Recombinant human LTA4H (Bio-techne, 4008-SN) was buffer-exchanged into sterile PBS and dosed at 4.6 ug/150 uL by tail vein i.v. injection. SC-57461A (Cayman Chemical, 423169-68) stock solution was prepared at 10 mg/mL in DMSO. Stock solution was diluted into sterile PBS immediately prior to p.o. dosing to a final concentration of 10% DMSO and 1 mg/mL SC-57461A. Mice were p.o. dosed at 5 mg/kg. CP-105,696 (Sigma, PZ0363), Pinostilbene hydrate (Sigma, SML0098), and Montelukast (Cayman Chemical, 10008318) stock solutions were prepared at 30 mg/mL in EtOH/Solutol. Stock solutions were diluted into sterile PBS immediately prior to p.o. dosing to a final concentration of 10% EtOH and […] inhibitor. Administration to mice was performed p.o. at a dose of 10 mg/kg. Vehicle was 10% EtOH/Solutol and was dosed p.o. at a volume of 150 uL.
as §3, §4

[4] = test system: microglia in the hippocampus; experiment: Histology of microglia markers (Iba1, CD68) in the hippocampus of young mice
Description: as §1, §2
as §4, with “Behavioral assays were executed in week 5 and 6, and animals were sacrificed, and tissues collected immediately after completion of behavior testing in week 6. FIG. 10 depicts the treatment paradigm and injection timing for the study.” left out

[5] = paradigm 1: IV daily for 7 consecutive days, vs PBS, tested week 5-6
[6] = paradigm 2: continuous dosing, IV 3 times per week for 6 weeks

B1: recombinant human LTA4H: Recombinant human LTA4H (Bio-techne, 4008-SN), leukotriene A4 hydrolase enzyme, dosed by tail vein i.v. injection (protein, UniProt P09960 2-611, looked up)
Leukotriene A-4 hydrolase: PEIVDTCSLASPASVCRTKHLHLRCSVDFTRRTLTGTAALTVQSQEDNLRSLVLDTKDLTIEKVVINGQEVKYALGERQSYKGSPMEISLPIALSKNQEIVIEISFETSPKSSALQWLTPEQTSGKEHPYLFSQCQAIHCRAILPCQDTPSVKLTYTAEVSVPKELVALMSAIRDGETPDPEDPSRKIYKFIQKVPIPCYLIALVVGALESRQIGPRTLVWSEKEQVEKSAYEFSETESMLKIAEDLGGPYVWGQYDLLVLPPSFPYGGMENPCLTFVTPTLLAGDKSLSNVIAHEISHSWTGNLVTNKTWDHFWLNEGHTVYLERHICGRLFGEKFRHFNALGGWGELQNSVKTFGETHPFTKLVVDLTDIDPDVAYSSVPYEKGFALLFYLEQLLGGPEIFLGFLKAYVEKFSYKSITTDDWKDFLYSYFKDKVDVLNQVDWNAWLYSPGLPPIKPNYDMTLTNACIALSQRWITAKEDDLNSFNATDLKDLSSHQLNEFLAQTLQRAPLPLGHIKRMQEVYNFNAINNSEIRFRWLRLCIQSKWEDAIPLALKMATEQGRMKFTRPLFKDLAAFDKSHDQAVRTYQEHKASMHPVTAMLVGKDLKVD
number of EdU-labeled cells within the granule cell layer of the dentate gyrus ([1]; paradigm 1, EdU in week 3, vs PBS): significant decrease | number of Ki67-labeled cells within the granule cell layer of the dentate gyrus ([1]; paradigm 1, vs PBS, listed as human recombinant LTA4H protein): significant decrease | number of Ki67-labeled cells within the granule cell layer of the dentate gyrus ([1]; paradigm 1, vs PBS, listed as recombinant LTA4H): fewer Ki67 labeled cells | number of BrdU and DCX co-labeled cells within the granule cell layer of the dentate gyrus ([1]; paradigm 2: continuous dosing): significant decrease | number of BrdU and DCX co-labeled cells within the granule cell layer of the dentate gyrus ([1]; paradigm 2: pulse dosing): statistical trend towards a decrease | memory of the familiar arm in Y-maze testing (novel vs familiar arm entries) ([2]; paradigm 2: continuous dosing): impaired memory | memory of the familiar arm in Y-maze testing (novel vs familiar arm entries) ([2]; paradigm 2: pulse dosing): impaired memory | number of entries into the familiar arm during Y-maze training ([2]; paradigm 2: pulse or continuous dosing, vs PBS): no differences | anxiety as measured by percent time spent in periphery or center of the open field ([3]; paradigm 1: IV daily for 7 consecutive days, vs PBS): not affected | average velocity in open field [3, 5]: no change | total distance travelled in open field [3, 5]: no change | average velocity in open field [3, 6]: significant reduction | distance traveled in open field [3, 6]: significant reduction | anxiety as measured by percent time spent in periphery or center of the open field ([3]; paradigm 2: either dosing paradigm (pulse or continuous)): not affected | general locomotion as measured by total distance travelled and average velocity ([3]; paradigm 2: pulse dosing, IV daily for 7 consecutive days): impaired with continuous dosing of LTA4H, but not with pulse dosing | average number of Iba1-labeled cells in the hippocampus ([4]; paradigm 2: pulse dosing, relative to vehicle PBS): significant increase | average number of CD68-labeled cells in the hippocampus ([4]; paradigm 3: 10 days following pulse dosing (IV daily, 7 days), relative to PBS): significant increase
